The target of experiment [1] is T1, 4-1BB (antigen of the Octet kinetics) (human, UniProt Q07011 24-186, limits assumed).
T1 construct: the whole entry is named
As to the kind of experiment: Octet Red 96 kinetics. An excerpt:
To explore the binding kinetics of the humanized antibody, this example performed the affinity ranking by using Octet Red 96.

The next experiment has as its target T2, human 4-1 BB-Fc protein (human, UniProt Q07011 24-186).
T2 construct: also called extracellular domain 4-1 BB antigen; not shown: Fc part
As to the kind of experiment: ELISA on plate-coated human 4-1BB-Fc (0.1 ug/ml), goat anti-human IgG-HRP, TMB. As for the experimental part: To evaluate the antigen binding activity, the antibody candidates were subjected to ELISA test. Briefly, microtiter plates were coated with human 4-1 BB-Fc protein at 0.1 μg/ml in PBS, 100 μl/well at 4° C. overnight, then blocked with 100 μl/well of 5% BSA. Serial dilutions of antibodies obtained in Example 1.1 were added to each well and incubated for 1-2 hours at RT. The plates were washed with PBS/Tween and then incubate with goat-anti-human IgG antibody conjugated with Horse Radish Peroxidase (HRP) for 1 hour at RT. After washing, the plates were developed with TMB substrate and analyzed by spectrophotometer at OD 450-630 nm.
In general terms: An ELISA detects its analyte on a solid surface through an enzyme-linked reagent.

B1: 41B03 (antibody, human IgG4 S228P, V domains shown)
VH: EVQLLESGGGLVQPGGSLRLSCAASGFTFSSNVMNWVRQAPGKGLEWVSEISHSGSTNYNPSLKSRFTISRDNSKNTLYLQMNSLRAEDTAVYYCAVGAGNLGYWGQGTLVTVSS
VL: EIVLTQSPGTLSLSPGERATLSCQASQDISNYLNWYQQKPGQAPRLLIYGASSRATGIPDRFSGSGSGTDFTLTISRLEPEDFAVYYCQQYNSYPITFGQGTKLEIKR
As for B1, in experiment [1], the Kd turned out to be 790 pM, the koff is 0.000597 s⁻¹ and the association rate constant (kon) was determined as 755000 M⁻¹ s⁻¹.

B2: 41B02 (antibody, human IgG4 S228P, lambda, V domains shown)
VH: EVQLLESGGGLVQPGGSLRLSCAASGFTFSGYDMSWVRQAPGKGLEWVSVIYPDDGNTYYADSVKGRFTISRDNSKNTLYLQMNSLRAEDAAVYYCAKHGGQKPTTKSSSAYGMDGWGQGTLVTVSS
VL: QSVLTQPPSASGTPGRRVTISCSGSSSNIGNNYVTWYQQLPGTAPKLLIYADSHRPSGVPDRFSGSKSGTSASLAISGLRSEDEADYYCATWDYSLSGYVFGGGTKLTVLG
notes: also called anti-4-1BB antibody 41B02; 41B02 clone
Take B2: the “EC50 (read off the curve)” value in the experiment with human 4-1 BB-Fc protein is approximately 30 pM.

B3: 41B02.01 (antibody, human IgG4 S228P, lambda, V domains shown)
VH: EVQLLESGGGLVQPGGSLRLSCAASGFTFSGYDMSWVRQAPGKGLEWVSVIYPDDGNTYYADSVKGRFTISRDNSKNTLYLQMNSLRAEDTAVYYCAKHGGQKPTTKSSSAYGMDGWGQGTLVTVSS
VL: QSVLTQPPSASGTPGQRVTISCSGSSSNIGNNYVTWYQQLPGTAPKLLIYADSHRPSGVPDRFSGSKSGTSASLAISGLRSEDEADYYCATWDYSLSGYVFGGGTKLTVLG
For the molecule B3, the “EC50 (read off the curve)” value with human 4-1 BB-Fc protein is approximately 30 pM.

By Kd is commonly meant the free concentration of one partner at which half of the binding sites on the other are occupied at equilibrium, for simple one-to-one binding. Low values mean tighter binding, high ones weaker binding. A word on the koff: it is the first-order rate constant of dissociation. In general, kon refers to the rate constant with which the complex forms. Lower therefore signals slower complex formation. Broadly, the EC50 (read off the curve) is the concentration at which the effect is half-maximal. Lower therefore signals higher potency in that assay.

These data come from patent US20220242961A1 (ABL BIO, published 2022).
